Results published in patent US20120020971A1.

Experiments:
Test in all cases: FortéBio biosensor (biolayer interferometry), HA0 protein
[1] = biological target: HA0 protein from the H5 clade (influenza A virus, H5 clade (strain not stated))
[2] = biological target: HA0 protein from the H7 clade (influenza A virus, H7 clade (strain not stated))
[3] = biological target: HA0 protein from the H9 clade (influenza A virus, H9 clade (strain not stated))
[4] = biological target: HA0 protein of the H1 clade (influenza A virus, H1 clade (strain not stated))
[5] = biological target: HA0 protein from the H3 clade (influenza A virus, H3 clade (strain not stated))

B1: MAB53 (antibody, V domains shown)
VH: QVQLVQSGAEVRKPGSSVKVSCKVSGGIIRKYAINWVRQAPGQGLEWMGGIIAIFNTANYAQKFQGRVTITADESTSTVYMELSSLRSEDTALYYCARGMNYYSDYFDYWGQGSLVTVSP
VL: EIVLTQSPGTLSLSPGERATLSCRASQSVRSNNLAWYQHKPGQAPRLLIFGASSRATGIPDRFSGSGSGTDFTLTISRLEPEDFAVYYCQQYGSSPALTFGGGTKVEIKR
B1 gave a Kd [1] of 6 nM, a Kd [2] of 0.07 nM and a Kd [3] of 0.03 nM. For the same binder, the Kd [4] was 0.06 nM.

B2: MAB8 (antibody, V domains shown)
VH: EVQLVESGGGLVKPGGSLRLSCAASGFTFSTYTMSWVRQAPGQGLEWVSSITRTSSNIYYADSVEGRFTISRDNAKNSLYLQMHSLRVEDTAVYYCARISGVVGPVPFDYWGQGTLITVSS
VL: DIQMTQSPSSLSASVGDRVTITCRASQTISKYLNWYQQKPGRAPKLLIYSASSLQSGVPSRFTGSGSGTDFTLTITSLQPEDFATYYCQQSYRPSQITFGPGTKVDIKR
With B2 the Kd [5] was 16 nM, the Kd [1] was 0.2 nM and the Kd [4] was 9 nM.
